# From article PMC4608796
# Experiments:
# [1] = target: T1, CodY-His5 (Bacillus subtilis) (UniProt P39779); experiment: EMSA; details: CodY assays with 10 mM ILV (plus 2 mM GTP in Fig 2 footprints); Kd = protein monomer concentration shifting 50% of DNA; buffer, salt, pH and temperature not …
# T1 sequence: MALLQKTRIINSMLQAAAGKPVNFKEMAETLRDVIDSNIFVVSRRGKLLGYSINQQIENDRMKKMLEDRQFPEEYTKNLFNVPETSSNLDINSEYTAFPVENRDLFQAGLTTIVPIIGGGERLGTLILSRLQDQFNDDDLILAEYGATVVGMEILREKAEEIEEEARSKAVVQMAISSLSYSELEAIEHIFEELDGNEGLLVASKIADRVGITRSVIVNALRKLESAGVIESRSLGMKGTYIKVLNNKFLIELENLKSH
# [2] = target: T2, His6-ScoC (Bacillus subtilis) (UniProt P11065); experiment: EMSA; details: CodY assays with 10 mM ILV (plus 2 mM GTP in Fig 2 footprints); Kd = protein monomer concentration shifting 50% of DNA; buffer, salt, pH and temperature not …
# T2 sequence: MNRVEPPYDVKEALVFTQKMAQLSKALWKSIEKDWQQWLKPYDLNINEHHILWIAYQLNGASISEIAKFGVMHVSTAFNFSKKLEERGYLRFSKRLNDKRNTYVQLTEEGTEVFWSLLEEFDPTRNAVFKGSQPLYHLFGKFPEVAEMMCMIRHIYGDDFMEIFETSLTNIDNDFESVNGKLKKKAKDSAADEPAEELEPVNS
substance,measurement,setting,value
braB242p+,Kd,[1],3 nM
braB144p+ (gel shift),Kd,[1],4 nM
braB156p+ (gel shift),Kd,[1],75 nM
TCGTTTCGTCATATTATCTGACAATTAATTGACAGAATATTTTAACATAATTATTAGGAGGATT (double strand) [braB64],Kd,[1],5 nM
same,Kd,[2],150 nM
